Source: publication PMC11349179, “Comparative analysis of the LARP1 C-terminal DM15 region through Coelomate evolution” (PLOS ONE, 2024)

Key:
DrDM15 (zebrafish) = DrDM15 (zebrafish) (UniProt F1R0U5); test: EMSA; conditions: 5' m7G cap (Vaccinia capping), EMSA: 20 mM Tris-HCl pH 8, 150 mM NaCl, 10% glycerol, 1 mM DTT, 0.5 ug tRNA, 1 ug BSA, pM RNA (95 C, snap cooled), native 7% PAGE, 0.5X TBE
DmDM15 [1] = biological target: T1, DmDM15 (Drosophila melanogaster, UniProt Q9VAW5); test: differential scanning fluorimetry (SYPRO Orange); assay type: binding; conditions: 5 uM protein, 500 uM ligand; 50 mM Tris-HCl pH 8, 100 mM NaCl, 0.6 mM DTT, 10% glycerol
T1 construct: gene larp; C-terminal DM15 region; E. coli BL21(DE3); His6-MBP tag removed with TEV protease; monomer

HsDM15 [2] = biological target: T2, HsDM15 (Homo sapiens, UniProt Q6PKG0); test: differential scanning fluorimetry (SYPRO Orange); assay type: binding; conditions: 5 uM protein, 500 uM ligand; 50 mM Tris-HCl pH 8, 100 mM NaCl, 0.6 mM DTT, 10% glycerol
T2 construct: gene LARP1; C-terminal DM15 region; E. coli BL21(DE3); His6-MBP tag removed with TEV protease; monomer; residues 796-941 used in simulation only

DrDM15 = biological target: T3, DrDM15 (Danio rerio, UniProt A0A8M9P457); test: differential scanning fluorimetry (SYPRO Orange); assay type: binding; conditions: 5 uM protein, 500 uM ligand; 50 mM Tris-HCl pH 8, 100 mM NaCl, 0.6 mM DTT, 10% glycerol
T3 construct: gene larp1; C-terminal DM15 region, residues 754-904; E. coli BL21(DE3); His6-MBP tag removed with TEV protease; Gly6 linker after TEV site; monomer

DmDM15 [3] = biological target: DmDM15 (fruit fly, UniProt A0A0B4K7Y7 1330-1481); test: EMSA; EMSA: 20 mM Tris-HCl pH 8, 150 mM NaCl, 10% glycerol, 1 mM DTT, 0.5 ug tRNA, 1 ug BSA, pM RNA (95 C, snap cooled), 0.5-1 h on ice; native 7% PAGE, 0.5X TBE; conditions: protein: recombinant, tags: His6-MBP removed by TEV, label: 32P in cap
HsDM15 [4] = biological target: T4, HsDM15 (Homo sapiens, UniProt Q6PKG0-3 796-946); test: as above; conditions: protein: recombinant, tags: His6-MBP removed by TEV, label: 32P in cap
HsDM15 [5] = biological target: T4, HsDM15; test: EMSA; stated only as picomolar affinity; EMSA: 20 mM Tris-HCl pH 8, 150 mM NaCl, 10% glycerol, 1 mM DTT, 0.5 ug tRNA, 1 ug BSA, pM RNA (95 C, snap cooled), 0.5-1 h on ice; native 7% PAGE, 0.5X TBE; conditions: protein: recombinant; tags: His6-MBP removed by TEV; label: 32P in cap
[6] = 5' end paired in one predicted fold

Sequence of DmDM15 (fruit fly, UniProt A0A0B4K7Y7 1330-1481) (A0A0B4K7Y7 entry or part of it): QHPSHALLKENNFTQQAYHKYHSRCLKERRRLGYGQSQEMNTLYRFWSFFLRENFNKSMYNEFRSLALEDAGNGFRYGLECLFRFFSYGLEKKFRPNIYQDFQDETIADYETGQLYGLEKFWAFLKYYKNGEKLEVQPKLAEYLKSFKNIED
T1 sequence (Q9VAW5 1330-1481): as the sequence (A0A0B4K7Y7 entry or part of it) above
T3 sequence (A0A8M9P457 778-928): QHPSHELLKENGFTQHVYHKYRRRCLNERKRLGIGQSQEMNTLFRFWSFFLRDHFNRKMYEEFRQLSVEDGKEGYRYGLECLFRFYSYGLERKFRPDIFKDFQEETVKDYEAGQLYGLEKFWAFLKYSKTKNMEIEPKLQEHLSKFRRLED

“CCUUCUCCCCGCUUAUCUCUUUGAGAUAAAUGCAUAUUUUUU [HsPABPC1_Stem, capped]” gave a Kd (DrDM15 (zebrafish); 0.5-1 h on …) of 6900 pM.

“CCUUCUCCCCGGCGGUUAGUGCUGAGAGUGCGGAGUGUGUGC [HsPABPC1 42-mer, capped]” was tested, and the Kd (DrDM15 (zebrafish); 0.5-1 h on …) was 97000 pM.

Molecule “CCUCUUUUCCGUGGCGCCUCGGAGGCGUUCAGCUGCUUCAAG [HsRPS6 42-mer, capped]” has a Kd (DrDM15 (zebrafish); 0.5-1 h on …) of 10000 pM.

With `C[n+]1cn([C@@H]2O[C@H](COP(=O)(O)OP(=O)(O)OP(=O)(O)O)[C@@H](O)[C@H]2O)c2nc(N)[nH]c(=O)c21` [m^7GTP] the Tm (DmDM15 [1]) was “thermal stabilization of all three orthologs in the presence of a cap analog (Fig 3D)”, the Tm (HsDM15 [2]) was “thermal stabilization of all three orthologs in the presence of a cap analog (Fig 3D)” and the Tm (DrDM15) was “thermal stabilization of all three orthologs in the presence of a cap analog (Fig 3D)”.

For “CCUCUUUUCCGCUUAUCUCUUUGAGAUAAAUGCAUAUUUUUU [HsRPS6_Stem, capped]”, the Kd (DrDM15 (zebrafish); 0.5-1 h on …) was 7900 pM.

For “CUUUUGCCAUUGUCAGCCGACGAAGUGCUUUAACCCAAACUA [DmRPL30 42-mer, capped]”, the Kd (DrDM15 (zebrafish); stated only as picomolar affinity, 0.5-1 h on ice) was less than 1000 pM.

With CCUCUUUUCCGUGGCGCCUCGGAGGCGUUCAGCUGCUUCAAG (structured_RNA, 5' m7G cap (Vaccinia capping)) [HsRPS6 42-mer, capped] the Kd (DmDM15 [3]; hairpin (predicted)) was 58 ± 0.02 nM and the Kd (HsDM15 [4]; hairpin (predicted)) was 3.9 ± 0.2 nM.

With CCUCUUUUCCGCUUAUCUCUUUGAGAUAAAUGCAUAUUUUUU (structured_RNA, 5' m7G cap (Vaccinia capping)) [HsRPS6_Stem, capped] the Kd (DmDM15 [3]; hairpin (predicted)) was 29 ± 0.06 nM and the Kd (HsDM15 [4]; hairpin (predicted)) was 1.9 ± 0.05 nM.

Molecule CCUUCUCCCCGGCGGUUAGUGCUGAGAGUGCGGAGUGUGUGC (structured_RNA, 5' m7G cap (Vaccinia capping)) [HsPABPC1 42-mer, capped] has a Kd (DmDM15 [3]; [6]) of 140 ± 0.02 nM and a Kd (HsDM15 [4]; [6]) of 18 ± 0.06 nM.

In the case of CCUUCUCCCCGCUUAUCUCUUUGAGAUAAAUGCAUAUUUUUU (structured_RNA, 5' m7G cap (Vaccinia capping)) [HsPABPC1_Stem, capped], the Kd (DmDM15 [3]; hairpin (predicted)) is reported as 6.1 ± 0.03 nM and the Kd (HsDM15 [4]; hairpin (predicted)) is reported as 1.5 ± 0.04 nM.

CUUUUGCCAUUGUCAGCCGACGAAGUGCUUUAACCCAAACUA (ssRNA, 5' m7G cap (Vaccinia capping)) [DmRPL30 42-mer, capped] showed a Kd (HsDM15 [5]) of less than 1 nM.
